# Laboratory results taken from US8591913B2, “Methods of decreasing adipose tissue” (Toru Miyazaki, priority 2009, dated 2013).
# “Also recorded” adds a separate entry of the source.
# Experiments:
# FAS [1] = molecular target: T1, FAS (Mus musculus, UniProt P19096); test: FAS enzyme activity in lysates of loaded 3T3-L1 cells (malonyl-CoA consumption); format: cell-based; settings: C75 25 μM versus AIM 5 μg/mL, schedules (d) and (f)
# T1 construct: cell lysates were prepared, and the enzyme activity of FAS was measured; endogenous in cells; host or cells: 3T3-L1 cells (differentiating or differentiated)
# T1 sequence (P19096 whole entry): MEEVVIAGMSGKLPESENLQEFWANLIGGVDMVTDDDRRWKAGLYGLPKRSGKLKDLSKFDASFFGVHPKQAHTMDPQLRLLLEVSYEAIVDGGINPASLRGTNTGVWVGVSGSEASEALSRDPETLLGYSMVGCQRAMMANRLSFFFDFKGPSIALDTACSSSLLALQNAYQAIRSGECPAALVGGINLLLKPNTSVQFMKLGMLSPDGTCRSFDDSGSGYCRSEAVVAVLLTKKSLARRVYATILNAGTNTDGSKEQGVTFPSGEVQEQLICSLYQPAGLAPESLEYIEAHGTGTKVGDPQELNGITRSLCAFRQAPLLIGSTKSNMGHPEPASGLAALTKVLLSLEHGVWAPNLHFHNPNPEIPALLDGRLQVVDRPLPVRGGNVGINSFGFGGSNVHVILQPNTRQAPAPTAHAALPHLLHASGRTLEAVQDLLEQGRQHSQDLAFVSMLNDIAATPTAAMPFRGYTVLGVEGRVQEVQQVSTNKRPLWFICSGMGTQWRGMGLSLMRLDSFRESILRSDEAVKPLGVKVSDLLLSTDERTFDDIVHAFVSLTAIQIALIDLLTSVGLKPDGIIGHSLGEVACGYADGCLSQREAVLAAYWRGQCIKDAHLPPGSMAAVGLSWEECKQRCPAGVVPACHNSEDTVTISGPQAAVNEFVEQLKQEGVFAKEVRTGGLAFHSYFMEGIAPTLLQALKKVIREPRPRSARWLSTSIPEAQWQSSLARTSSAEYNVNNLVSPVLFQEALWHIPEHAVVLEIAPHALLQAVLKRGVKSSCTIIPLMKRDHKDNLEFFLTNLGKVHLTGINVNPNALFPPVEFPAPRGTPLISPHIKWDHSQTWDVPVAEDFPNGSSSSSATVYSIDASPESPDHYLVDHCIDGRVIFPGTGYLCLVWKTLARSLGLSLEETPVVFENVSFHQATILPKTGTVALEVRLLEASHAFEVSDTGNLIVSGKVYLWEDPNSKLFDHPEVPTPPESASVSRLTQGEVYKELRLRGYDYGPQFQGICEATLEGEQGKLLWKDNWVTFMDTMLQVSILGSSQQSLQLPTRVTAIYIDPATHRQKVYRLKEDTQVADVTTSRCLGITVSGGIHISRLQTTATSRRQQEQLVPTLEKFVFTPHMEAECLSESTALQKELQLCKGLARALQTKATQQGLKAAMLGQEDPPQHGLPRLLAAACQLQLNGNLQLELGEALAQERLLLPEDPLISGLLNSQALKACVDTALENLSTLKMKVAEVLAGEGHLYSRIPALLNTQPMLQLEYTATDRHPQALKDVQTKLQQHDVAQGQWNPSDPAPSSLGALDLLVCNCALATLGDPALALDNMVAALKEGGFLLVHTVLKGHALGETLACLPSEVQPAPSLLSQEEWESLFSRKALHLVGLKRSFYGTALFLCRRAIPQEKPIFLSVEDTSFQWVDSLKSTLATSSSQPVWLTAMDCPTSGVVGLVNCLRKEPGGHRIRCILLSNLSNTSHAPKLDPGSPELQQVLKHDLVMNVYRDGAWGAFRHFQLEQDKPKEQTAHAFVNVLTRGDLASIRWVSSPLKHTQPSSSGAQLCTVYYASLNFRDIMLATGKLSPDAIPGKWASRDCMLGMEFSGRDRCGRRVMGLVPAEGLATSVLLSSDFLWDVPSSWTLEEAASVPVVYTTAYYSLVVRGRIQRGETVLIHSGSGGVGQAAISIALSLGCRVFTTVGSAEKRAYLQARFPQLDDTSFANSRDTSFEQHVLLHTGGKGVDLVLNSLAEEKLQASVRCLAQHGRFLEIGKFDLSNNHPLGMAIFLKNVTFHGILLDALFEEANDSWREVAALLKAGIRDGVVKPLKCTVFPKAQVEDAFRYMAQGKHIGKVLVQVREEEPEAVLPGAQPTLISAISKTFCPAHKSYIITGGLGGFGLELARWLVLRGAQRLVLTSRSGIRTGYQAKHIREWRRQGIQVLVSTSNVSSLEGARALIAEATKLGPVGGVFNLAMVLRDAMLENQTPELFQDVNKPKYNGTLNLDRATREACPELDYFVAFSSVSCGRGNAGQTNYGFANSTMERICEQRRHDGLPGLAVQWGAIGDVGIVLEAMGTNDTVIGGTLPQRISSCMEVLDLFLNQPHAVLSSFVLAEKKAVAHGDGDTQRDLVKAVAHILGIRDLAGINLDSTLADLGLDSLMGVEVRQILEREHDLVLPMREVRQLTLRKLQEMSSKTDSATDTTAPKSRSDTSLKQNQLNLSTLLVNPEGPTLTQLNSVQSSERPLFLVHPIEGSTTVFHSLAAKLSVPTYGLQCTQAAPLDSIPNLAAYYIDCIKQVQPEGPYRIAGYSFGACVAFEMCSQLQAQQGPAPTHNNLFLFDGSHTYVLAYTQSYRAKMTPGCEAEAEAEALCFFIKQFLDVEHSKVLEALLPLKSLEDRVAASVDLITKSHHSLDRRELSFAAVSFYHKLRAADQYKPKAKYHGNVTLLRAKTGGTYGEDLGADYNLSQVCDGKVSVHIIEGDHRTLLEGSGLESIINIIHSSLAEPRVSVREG
# Protocol: Whether AIM affected an enzyme activity of FAS or not was examined.
# In addition, as a schedule (f) similar to the above-mentioned schedule (e), AIM was loaded for 4 days (day 8 to day 12) after the 3T3-L1 cells differentiated, subsequently the cells were collected on the 10th day (day 12) after the initiation of the differentiation induction, cell lysates were prepared, and the enzyme activity of FAS was measured. The enzyme activity of FAS was measured based on a consumption amount of malonyl-CoA.
# (§1) In addition, using a FAS inhibitor (C75) in place of AIM, the FAS inhibitor at a concentration of 25 μM was loaded according to the schedules (d) and (f), and as was the case with the above-mentioned AIM, the cells were collected on the 2nd day (day 4: schedule (d)) and 10th day (day 12: schedule (f)) after the initiation of the differentiation induction, and the enzyme activity of FAS was measured.
# Further, for comparison, the cells cultured without loading AIM in the above-mentioned schedule (a) were also collected at times of the 2nd day (day 4) and 10th day (day 12) after the initiation of the differentiation induction, and the enzyme activity of FAS was measured.
# FIG. 11B and FIG. 11C illustrate the results of measuring the FAS enzyme activity (Fatty acid synthase activity) (nmol NADPH/min/mg protein). FIG. 11B illustrates the results obtained on the 2nd day (day 4) after the initiation of the differentiation induction in the case of loading no AIM according to the schedule (a) (None), the case of loading AIM according to the schedule (d) (AIM (5 μg/mL)), and the case of loading the FAS inhibitor according to the schedule (d) (C75 (25 μM)). FIG. 11C illustrates the results obtained on the 10th day (day 12) after the initiation of the differentiation induction in the case of loading no AIM according to the schedule (a) (None), the case of loading AIM according to the schedule (f) (AIM (5 μg/mL)), and the case of loading the FAS inhibitor according to the schedule (f) (C75 (25 μM)).
# mice = settings: administration of C75 to mice, reported; cited from earlier work
# 3T3-L1 preadipocytes = test: Differentiation of 3T3-L1 preadipocytes into mature adipocytes, oil-red-o staining; format: cell-based, mouse; settings: mouse AIM and human AIM compared, in vitro
# Protocol: In order to examine how AIM produced by the macrophages infiltrating the adipose tissues works on surrounding adipocytes, an experiment in which AIM was loaded during a culture process of differentiating 3T3-L1 preadipocytes into the mature adipocytes was performed.
# A recombinant mouse AIM protein and a recombinant human AIM protein were used as AIM. Those recombinant AIM proteins were prepared by culturing human-derived HEK293T cells transfected with a vector expressing mouse AIM or human AIM and isolating and purifying the protein from its culture supernatant. The same recombinant AIM proteins were also used as AIM in other examples shown below. AIM was loaded by adding AIM at a concentration of 5 μg/mL to the culture medium.
# Differentiation induction (Induction) of the 3T3-L1 cells was initiated by first culturing the 3T3-L1 cells for 4 days (day −2 to day 2) to proliferate the cells (Cell proliferation) and subsequently culturing the cells in a culture medium containing insulin, dexamethasone (DEX), and isobutylmethylxanthine (IBMX) for 2 days (day 2 to day 4). The differentiation induction was further continued by culturing the cells in a culture medium containing insulin for 2 days (day 4 to day 6).
# After the period of the differentiation induction (day 2 to day 6), the culture was continued in a culture medium not containing those differentiation-inducing factors. Then, the cells on the 10th day (day 12) after the initiation of the stimuli for differentiation induction were stained with oil-red-o, and the differentiation of the 3T3-L1 cells to mature adipocytes was observed.
# as §1
# FIG. 12A and FIG. 12B show the results of staining the cells with oil-red-o and analyzing the gene expression by RT-PCR on the 2nd day (day 4) after the initiation of the differentiation induction in the case of loading no AIM according to the schedule (a) (None), the case of loading AIM according to the schedule (d) (AIM (5 μg/mL)), and the case of loading the FAS inhibitor according to the schedule (d) (C75 (25 μM)), respectively.
# [2] = tested on: mature adipocytes (differentiated 3T3-L1 cells); test: Induction of lipolysis in mature 3T3-L1 adipocytes (lipid droplets, glycerol and free fatty acid efflux); format: cell-based, mouse; settings: mouse AIM and human AIM compared, same range of concentrations in vitro
# Protocol: The effect of AIM on mature adipocytes was examined.
# Then, the cells on the 10th day (day 12) after the initiation of the stimuli for differentiation induction were stained with oil-red-o. The number of cells having lipid droplets was counted. Further, the diameter of lipid droplets was measured in the cells having lipid droplets. For comparison, the number of the cells was counted and the diameter of lipid droplets was measured for the cells cultured in the above-mentioned schedules (a) and (d).
# Further, the supernatant of the culture medium after the cells were cultured while loading AIM according to the schedule (e) was collected, and amounts of glycerol and free fatty acid (FFA) contained in the supernatant were measured by ELISA. For the comparison, the amounts of glycerol and free fatty acid in the culture supernatant obtained according to the schedule (a) were also measured.
# In order to avoid adsorption of free fatty acid to albumin contained in the culture medium, the culture medium supplemented with 10% FBS (fetal bovine serum) was exchanged to a serum-free culture medium on the 10th day (day 12) after the initiation of the differentiation induction, further the cells were cultured in the serum-free culture medium for 6 hours, and subsequently the amounts of glycerol and free fatty acid contained in the supernatant of the serum-free culture medium were measured.
# FIG. 7A and FIG. 7B illustrate the evaluation results of the number (per 10^4 μm^2) of cells having lipid droplets (Droplet (+) cells) and the relative diameter of lipid droplets (%) obtained according to the schedules (a), (d), and (e) (Exp. a, d, and e), respectively. The relative diameter of lipid droplets illustrated in FIG. 7B was calculated by defining the diameter of lipid droplets in the cells obtained according to the schedule (a) without AIM loading as 100%. FIG. 8A and FIG. 8B illustrate the concentration of glycerol (Glycerol Efflux, mM) and the concentration of free fatty acid (FFA Efflux, ×10 mM) in the culture medium obtained according to the schedules (a) and (e) (Exp. a and e), respectively.
# In addition, FIG. 13A and FIG. 13B illustrate the results of measuring the glycerol concentration (glycerol efflux, mM) and the free fatty acid concentration (FFA efflux, ×10 mM) in the culture medium on the 10th day (day 12) after the initiation of the differentiation induction in the case of loading no AIM according to the schedule (a) (None), the case of loading AIM according to the schedule (f) (AIM), and the case of loading the FAS inhibitor according to the schedule (f) (C75), respectively.
# [3] = tested on: human mesenchymal stem cells (HMSCs); test: Adipogenesis of human mesenchymal stem cells (HMSCs) with rhAIM; format: cell-based
# Protocol: In order to confirm that AIM also acts upon adipogenesis in human cells, the differentiation of human mesenchymal stem cells (HMSCs) (Lonza Walkersville Inc., USA) was stimulated in the presence or absence of recombinant human AIM (rhAIM).
# That is, HMSCs were cultured in a mesenchymal stem cell basal medium (MSCBM) (Lonza Walkersville Inc.) for 10 days until the cells became confluent. Subsequently, the adipogenesis of the cells was stimulated by culturing the cells in the presence or absence of rhAIM (10 μg/mL) together with human insulin, MCGS, dexamethasone, indomethacin, and IBMX for 3 days (adipogenesis induction) (reference: Janderrova et al., Obes. Res., 11: 65, 2003). After the stimulation, the cells were cultured in MSCBM in which human insulin and MCGS had been added for an additional 10 days. Then, the cells were collected and stained with oil-red-o.
# FIG. 36A, FIG. 36B, and FIG. 36C show the results of observing the cells before the stimulation of adipogenesis (Pre-stimulation), after the stimulation in the absence of rhAIM (rhAIM (−)), and after the stimulation in the presence of 10 μg/mL rhAIM (rhAIM (10 μg/mL)) under the phase contrast microscope, respectively.
# FAS [4] = molecular target: T2, FAS (Homo sapiens, UniProt P49327); test: Co-immunoprecipitation of HA-tagged AIM and FLAG-tagged FAS in HEK293T cells; format: binding; settings: HEK293T cells co-expressing HA-tagged mouse AIM and FLAG-tagged FAS, anti-FLAG or anti-HA antibody
# T2 construct: expressed in transfected cells; host or cells: HEK293T
# T2 sequence (P49327 whole entry): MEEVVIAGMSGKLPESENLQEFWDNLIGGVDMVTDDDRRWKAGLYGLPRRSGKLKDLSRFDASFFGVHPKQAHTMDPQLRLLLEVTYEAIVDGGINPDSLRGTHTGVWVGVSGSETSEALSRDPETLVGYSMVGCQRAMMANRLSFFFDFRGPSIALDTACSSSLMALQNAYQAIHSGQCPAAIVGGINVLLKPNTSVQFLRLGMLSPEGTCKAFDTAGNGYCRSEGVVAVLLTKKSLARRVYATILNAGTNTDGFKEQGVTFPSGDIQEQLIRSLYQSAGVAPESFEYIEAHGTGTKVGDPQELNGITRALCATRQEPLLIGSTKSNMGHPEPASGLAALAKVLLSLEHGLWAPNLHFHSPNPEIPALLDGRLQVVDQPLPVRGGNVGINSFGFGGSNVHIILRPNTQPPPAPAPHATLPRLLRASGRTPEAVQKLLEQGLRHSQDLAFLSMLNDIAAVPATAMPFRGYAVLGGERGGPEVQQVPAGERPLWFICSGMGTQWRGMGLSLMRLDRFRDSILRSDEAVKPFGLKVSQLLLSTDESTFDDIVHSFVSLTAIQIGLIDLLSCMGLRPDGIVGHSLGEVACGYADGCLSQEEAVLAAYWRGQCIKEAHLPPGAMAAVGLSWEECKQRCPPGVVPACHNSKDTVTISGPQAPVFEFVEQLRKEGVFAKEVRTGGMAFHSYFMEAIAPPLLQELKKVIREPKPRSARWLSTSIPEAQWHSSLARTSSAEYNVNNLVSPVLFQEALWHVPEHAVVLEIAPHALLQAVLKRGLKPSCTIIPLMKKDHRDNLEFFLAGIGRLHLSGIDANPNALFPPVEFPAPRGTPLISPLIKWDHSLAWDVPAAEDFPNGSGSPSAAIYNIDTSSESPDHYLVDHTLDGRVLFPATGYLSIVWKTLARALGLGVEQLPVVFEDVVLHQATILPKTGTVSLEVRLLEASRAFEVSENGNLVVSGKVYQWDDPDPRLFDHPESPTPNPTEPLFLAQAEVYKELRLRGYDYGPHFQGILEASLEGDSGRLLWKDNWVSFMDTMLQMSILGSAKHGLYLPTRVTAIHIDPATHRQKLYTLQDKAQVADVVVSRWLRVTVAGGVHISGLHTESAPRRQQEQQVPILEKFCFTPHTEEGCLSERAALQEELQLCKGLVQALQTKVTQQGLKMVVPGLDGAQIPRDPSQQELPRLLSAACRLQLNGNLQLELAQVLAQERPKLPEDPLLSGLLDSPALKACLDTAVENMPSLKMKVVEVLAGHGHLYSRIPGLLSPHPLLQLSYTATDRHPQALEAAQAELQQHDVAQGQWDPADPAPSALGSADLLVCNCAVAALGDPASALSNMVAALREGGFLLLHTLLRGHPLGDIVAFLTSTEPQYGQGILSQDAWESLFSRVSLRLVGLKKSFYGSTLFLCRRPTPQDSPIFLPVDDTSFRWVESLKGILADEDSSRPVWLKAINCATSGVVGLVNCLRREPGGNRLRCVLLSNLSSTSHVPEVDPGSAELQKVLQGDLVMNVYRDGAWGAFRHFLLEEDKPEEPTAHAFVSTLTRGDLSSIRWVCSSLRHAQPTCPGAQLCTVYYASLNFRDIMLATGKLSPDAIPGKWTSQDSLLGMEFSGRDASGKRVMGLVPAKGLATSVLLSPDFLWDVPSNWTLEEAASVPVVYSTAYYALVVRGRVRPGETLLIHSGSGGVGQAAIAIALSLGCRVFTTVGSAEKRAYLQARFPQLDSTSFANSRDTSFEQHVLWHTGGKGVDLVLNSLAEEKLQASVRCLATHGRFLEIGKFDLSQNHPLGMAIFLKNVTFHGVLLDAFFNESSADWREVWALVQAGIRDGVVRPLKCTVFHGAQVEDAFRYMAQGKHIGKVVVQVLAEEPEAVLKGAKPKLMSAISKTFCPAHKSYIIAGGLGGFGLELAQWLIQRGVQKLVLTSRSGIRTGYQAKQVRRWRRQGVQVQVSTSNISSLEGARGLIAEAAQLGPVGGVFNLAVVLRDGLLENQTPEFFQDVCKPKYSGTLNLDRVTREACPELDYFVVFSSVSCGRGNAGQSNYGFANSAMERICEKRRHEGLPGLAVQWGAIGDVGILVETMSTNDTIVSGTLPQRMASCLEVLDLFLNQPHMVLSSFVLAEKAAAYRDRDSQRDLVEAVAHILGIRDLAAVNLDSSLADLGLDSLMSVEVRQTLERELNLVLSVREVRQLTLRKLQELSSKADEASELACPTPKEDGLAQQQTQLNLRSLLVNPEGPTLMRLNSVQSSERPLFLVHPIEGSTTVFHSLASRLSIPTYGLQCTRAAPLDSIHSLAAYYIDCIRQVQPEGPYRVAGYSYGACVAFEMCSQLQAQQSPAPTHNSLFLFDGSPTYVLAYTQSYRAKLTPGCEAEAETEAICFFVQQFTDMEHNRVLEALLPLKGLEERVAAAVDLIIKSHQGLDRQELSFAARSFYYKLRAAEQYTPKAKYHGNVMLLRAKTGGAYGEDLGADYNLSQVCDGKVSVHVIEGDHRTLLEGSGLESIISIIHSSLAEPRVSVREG
# Protocol: Thus, in order to confirm the fact, first, HEK293T cells which co-expressed both AIM (mouse AIM) fused with an HA-tag and FAS fused with a FLAG-tag were produced. Also, the HEK293T cells were collected after being cultured for a predetermined period of time, its cell lysate was prepared, and an immunoprecipitation was performed using an anti-FLAG antibody.
# In addition, a co-immunoprecipitation study was performed using HEK293T cells which express both FAS tagged with FLAG and mouse AIM tagged with HA, and an anti-FLAG antibody or an anti-HA antibody.
molecule,measurement,setting,value
C=C1C(=O)OC(CCCCCCCC)C1C(=O)O (stereo not shown) [C75],"levels of reduction of the FAS enzyme activity, C75 compared with AIM",FAS [1],almost the same
same,amount of neuropeptide Y (NPY) produced in the hypothalamus,mice,reduces
same,appetite,mice,remarkable loss of appetite
same,body weight,mice,body weight loss; also recorded: totally accelerated
"human AIM: protein consisting of the amino acid sequence shown in SEQ ID NO: 1; recombinant, purified from HEK293T culture supernatant (protein, human, recombinant, purified from HEK293T culture supernatant) MALLFSLILAICTRPGFLASPSGVRLVGGLHRCEGRVEVEQKGQWGTVCDDGWDIKDVAVLCRELGCGAASGTPSGILYEPPAEKEQKVLIQSVSCTGTEDTLAQCEQEEVYDCSHDEDAGASCENPESSFSPVPEGVRLADGPGHCKGRVEVKHQNQWYTVCQTGWSLRAAKVVCRQLGCGRAVLTQKRCNKHAYGRKPIWLSQMSCSGREATLQDCPSGPWGKNTCNHDEDTWVECEDPFDLRLVGGDNLCSGRLEVLHKGVWGSVCDDNWGEKEDQVVCKQLGCGKSLSPSFRDRKCYGPGVGRIWLDNVRCSGEEQSLEQCQHRFWGFHDCTHQEDVAVICSG",differentiation of 3T3-L1 cells derived from mice / differentiation inhibitory function,3T3-L1 preadipocytes,inhibited; also recorded: similarly exerted
same,lipolysis induction function in adipocytes derived from mice,[2],similarly exerted
same,differentiation of HMSCs,"[3]; rhAIM 10 μg/mL during 3 days adipogenesis induction, oil-red-o",dramatically inhibited
same,mRNA level of Glut-4,"[3]; rhAIM 10 μg/mL, RT-PCR, compared with absence of rhAIM",remarkably decreased
"HA-AIM: AIM (mouse AIM) fused with an HA-tag (protein, left off: small tags and cut ends, AIM (mouse AIM) fused with an HA-tag) ESPTKVQLVGGAHRCEGRVEVEHNGQWGTVCDDGWDRRDVAVVCRELNCGAVIQTPRGASYQPPASEQRVLIQGVDCNGTEDTLAQCELNYYVFDCSHEEDAGAQCENPDSDLLFIPEDVRLVDGPGHCQGRVEVLHQSQWSTVCKAGWNLQVSKVVCRQLGCGRALLTYGSCNKNTQGKGPIWMGKMSCSGQEANLRSCLLSRLENNCTHGEDTWMECEDPFELKLVGGDTPCSGRLEVLHKGSWGSVCDDNWGEKEDQVVCKQLGCGKSLHPSPKTRKIYGPGAGRIWLDDVNCSGKEQSLEFCRHRLWGYHDCTHKEDVEVICTDFDV",co-precipitation with FLAG-tagged FAS,FAS [4],co-precipitation
same,co-precipitation with FLAG-tagged FAS,FAS [4]; listed as mouse AIM tagged with HA,co-precipitated mutually
